The record followed here is the supplement of paper PMC10567573.

The nature of this data set: protein stability index of a GFP-peptide fusion (GPS, HEK-293T) (PSI 1-6); higher = more stable.
Where [1] appears, read: treatment: DMSO, c terminus: a fixed tail appended.
[2] abbreviates: treatment: MLN4924 1 uM, 8 h, c terminus: a fixed tail appended.

± gives the standard deviation.
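Also: 24-mer peptide tiles fused after GFP, lentivirally expressed, FACS-sorted into six equal bins by GFP/DsRed ratio, decoded by Illumina sequencing, PSI is the read-weighted mean bin number.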

Turning to IDNSSEIEDEDQILENSSQKENVF [FAN1], the protein stability index runs as follows: under setting [1], 5.39 ± 0.28; under setting [2], 5.2 ± 0.56.

IEREVNILREIRHPNIITLHDIFE [DAPK3]: the protein stability index worked out at 2.69 ± 0.17 under setting [1] and 2.71 ± 0.42 under setting [2].

Take IESLNEELAYMKKNHEEEMKEFSN [KRT13]: the protein stability index under setting [1] worked out at 4.88 ± 0.38 and the protein stability index under setting [2] was 5.06 ± 0.3.

Regarding IFEGNSEKEIPVLNELPVPMVARY [CPXM2], the protein stability index came to 3.55 ± 0.16 under setting [1] and 3.37 ± 0.33 under setting [2].

IFRNLCQMQEDNSSFSLLLDLLSE [INTS3]: the protein stability index by setting is: under setting [1], 2.61 ± 0.28; under setting [2], 2.51 ± 0.37.

For the sequence IGLTKAGMEGDWSWVDDTPFNKVQ [CD207], the protein stability index is, setting by setting: under setting [1], 2.97 ± 0.37; under setting [2], 3.04 ± 0.46.

As for ILLLDGAAWLTLWVFGTSFLPFLL [FADS1], the protein stability index reads like this: under setting [1], 2.91 ± 0.062; under setting [2], 3.17 ± 0.46.

Turning to IMTQLRQEGWIHHLARHAVACFLT [CRY1], the protein stability index reads like this: under setting [1], 3.02 ± 0.38; under setting [2], 2.84 ± 0.61.

Regarding INDNAPTFQSSVLRVGIPENAPIG [PCDHGC5], the protein stability index reads like this: under setting [1], 3.99 ± 0.066; under setting [2], 4.18 ± 0.19.

With INLPVEEFNELLSKYQLSEAQLSL [NFE2L1], the protein stability index is, setting by setting: under setting [1], 2.47 ± 0.44; under setting [2], 2.51 ± 0.21.

IPAVSISYVVYENLKITLGVQSR [SLC25A25]: the protein stability index by setting is: (treatment: DMSO, c terminus: native) 3.19 ± 0.32; (treatment: MLN4924 1 uM, 8 h, c terminus: native) 3.18 ± 0.36.

IPVLMALSWFILHARYRVIHFIAV [SLC35F2]: the protein stability index was determined as 3.09 ± 0.43 under setting [1] and 3.25 ± 0.093 under setting [2].

As for IPYWVAYYLALLLSLLVMVISPVI [NSDHL], the protein stability index by setting is: under setting [1], 2.23 ± 0.31; under setting [2], 2.28 ± 0.38.

Take IQHRRTHTDSKYEHAIAEAQKNMY [ZNF396]: the protein stability index reads like this: under setting [1], 3.78 ± 0.27; under setting [2], 3.96 ± 0.21.

Consider IQMVNESLGYVRSQFLKLKTSVEK [CD207], for which the protein stability index was 3.34 ± 0.21 under setting [1] and 3.29 ± 0.13 under setting [2].

IRLVCSRGNRLKTTSWGLLSLGAL [SCNN1D] registered a protein stability index under setting [1] of 3.2 ± 0.45 and a protein stability index under setting [2] of 3.07 ± 0.54.

Turning to ISFDRYYKIVKPLWTSFIQSVSYS [P2RY14], the protein stability index reads like this: under setting [1], 3.63 ± 0.89; under setting [2], 2.08 ± 0.7.

With ISGALLQIKTLLALSCHEQEMVVS [SLC2A12], the protein stability index turned out to be 2.91 ± 0.5 under setting [1] and 2.42 ± 0.48 under setting [2].

ISHQGDYAVLAAEPELQVGIDIMK [AASDHPPT]: the protein stability index under setting [1] worked out at 3.42 ± 0.21 and the protein stability index under setting [2] stood at 3.52 ± 0.3.

Turning to ISNGDFESYTKMCDPGMTAFEPEA [CAMK2A], the protein stability index by setting is: under setting [1], 4.48 ± 0.18; under setting [2], 4.66 ± 0.25.

As to ISVNGDVITIKSESTFKNTEISFI [FABP4], the protein stability index by setting is: under setting [1], 2.75 ± 1.1; under setting [2], 2.11 ± 0.16.

In the case of IVGWRCRVGQWVRMENVTVLGEDV [GMPPB], the protein stability index is, setting by setting: under setting [1], 2.39 ± 0.61; under setting [2], 2.15 ± 0.18.

As for IVHVEKEEVPEGMEEAAVASVVLP [BCL2L13], the protein stability index reads like this: under setting [1], 5.11 ± 0.16; under setting [2], 5.07 ± 0.19.

Turning to IVMCVQIKCFHEIITIGYNVYHSY [CDS2], the protein stability index reads like this: under setting [1], 3.32 ± 0.42; under setting [2], 3.36 ± 0.66.

For the sequence IVSILPYFITLGTDLAQQQGGGNG [KCNA4], the protein stability index by setting is: under setting [1], 2.92 ± 0.36; under setting [2], 2.54 ± 0.23.

Turning to IVVATLPIPVVFVLRHFHLLSDGS [SLC6A17], the protein stability index came out at 2.92 ± 0.56 under setting [1] and 3.21 ± 0.24 under setting [2].

Regarding IVVSLQSKLASMSNDFKSVLEVRT [STX5], the protein stability index reads like this: under setting [1], 2.7 ± 0.65; under setting [2], 2.64 ± 0.72.

Regarding IWAQGWVPAAGGPAPKRGYSSEMK [AUH], the protein stability index under setting [2] turned out to be 2.9 ± 0.29.

Regarding KAGFTASPFTNLLNGSSQPTTRNY [CDC14A], the protein stability index under setting [1] was determined as 3.38 ± 0.19 and the protein stability index under setting [2] stood at 3.39 ± 0.18.

As for KAKRRNQEMQQKLVELSAENEKLH [CEBPD], the protein stability index worked out at 4.97 ± 0.67 under setting [1] and 4.8 ± 0.097 under setting [2].

For KALQMLLSQPVTYQAFRECTLETT [BCL2L13], the protein stability index worked out at 3.24 ± 0.35 under setting [1] and 2.79 ± 0.42 under setting [2].

Take KASLWQFLSSEKQICGTHRQTKKM [TRIM43]: the protein stability index runs as follows: under setting [1], 2.63 ± 0.27; under setting [2], 2.71 ± 0.24.

Turning to KATNVVMNYSEIESKVREATNDDP [CLINT1], the protein stability index reads like this: under setting [1], 5.35 ± 0.27; under setting [2], 5.34 ± 0.15.

The sequence KAVKDLVVLLFETALLSSGFSLED [HSP90AB1] registered a protein stability index under setting [1] of 2.92 ± 0.17 and a protein stability index under setting [2] of 2.88 ± 0.16.

In the case of KDVRRHLVVHTGCKDFLCQFCAQR [PLAGL1], the protein stability index reads like this: under setting [1], 3.44 ± 0.08; under setting [2], 3.55 ± 0.21.

In the case of KDYYPINESLASLPLRVSFCPLSL [CLPTM1], the protein stability index worked out at 2.16 ± 0.28 under setting [1] and 2.15 ± 0.096 under setting [2].

As for KERDLRDVGDWRKNIEEKSGMEGR [TNNI2], the protein stability index turned out to be 5.07 ± 0.25 under setting [1] and 5.15 ± 0.3 under setting [2].

In the case of KERILLVTDKTLLICKYDFIMLSC [TPRG1], the protein stability index under setting [1] worked out at 3.06 ± 0.42 and the protein stability index under setting [2] was found to be 2.61 ± 0.31.

For KERQKKDNHNLIERRRRFNINDRI [TFE3], the protein stability index worked out at 3.95 ± 0.36 under setting [1] and 4.08 ± 0.14 under setting [2].

KFIKPWESPDEMELDELLKEISRK [PTPRD]: the protein stability index turned out to be 2.32 ± 0.41 under setting [1] and 2.76 ± 0.38 under setting [2].

Regarding KGAILTTMLATRNFSAAKSLLNKK [CAMK2B], the protein stability index reads like this: under setting [1], 2.91 ± 0.18; under setting [2], 3.04 ± 0.24.

As for KHSSTSSRIAKGGVDHTKMSLHGA [BTBD10], the protein stability index came to 3.66 ± 0.19 under setting [1] and 3.79 ± 0.19 under setting [2].

The sequence KHWVYVKRGGNCPAPAPLVPQDPD [ZBTB22] displayed a protein stability index under setting [1] of 3.32 ± 0.48 and a protein stability index under setting [2] of 3.56 ± 0.43.

The sequence KIASLLGLLSKTAGFSPDCIMDDA [INTS4] registered a protein stability index under setting [1] of 2.57 ± 0.58 and a protein stability index under setting [2] of 2.19 ± 0.55.

In the case of KITKVMDVRLDREHRVAGIFPRLS [CLPTM1], the protein stability index by setting is: under setting [1], 2.69 ± 0.17; under setting [2], 2.7 ± 0.36.

For KKAEQKKKEKIIEDKTFGLKNKKG [ZC3H15], the protein stability index under setting [1] was 4.8 ± 0.31 and the protein stability index under setting [2] is 4.92 ± 0.1.

KKAPQPAKPRLAERMTTREKKVLE [HDAC6]: the protein stability index was 4.58 ± 0.18 under setting [1] and 4.81 ± 0.39 under setting [2].

As for KKIYEAKRFTDAGFEHYDLFFIDG [CDC14A], the protein stability index stood at 2.36 ± 0.29 under setting [1] and 2.34 ± 0.23 under setting [2].

Consider KKLHEEELRDLQVSVESQQVQQVE [PRPH], for which the protein stability index by setting is: under setting [1], 4.13 ± 0.62; under setting [2], 4.2 ± 0.13.

In the case of KKPPVTFAEKGELRKSIFSESRKP [TRIM29], the protein stability index amounted to 4.13 ± 0.23 under setting [1] and 4.19 ± 0.19 under setting [2].

For KKRMRYFDPLRNEYFFDRNRPSFD [KCNA1], the protein stability index by setting is: under setting [1], 2.47 ± 0.44; under setting [2], 2.83 ± 0.19.

In the case of KKTGKSSTTALGDKQRKANESKGT [ELOA2], the protein stability index is, setting by setting: under setting [1], 5.26 ± 0.36; under setting [2], 5.22 ± 0.17.

With KLEERFMTLAANHELMLRFKDEYK [CCDC89], the protein stability index amounted to 2.99 ± 0.28 under setting [1] and 2.99 ± 0.43 under setting [2].

Regarding KLPRKVLQHVSEPQAHQESTRGAA [SPACA9], the protein stability index reads like this: under setting [1], 4.59 ± 0.13; under setting [2], 4.76 ± 0.17.

With KLWDLRTTKCVRQYEGHVNEYAYL [DCAF4], the protein stability index is, setting by setting: under setting [1], 2.38 ± 0.21; under setting [2], 2.27 ± 0.22.

Consider KNHEEEMKEFSNQVVGQVNVEMDA [KRT13], for which the protein stability index is 5.54 ± 0.079 under setting [1] and 5.44 ± 0.31 under setting [2].

For KNSMENGRPPDPADWAVMDVVNYF [SAMD13], the protein stability index reads like this: under setting [1], 3.3 ± 0.26; under setting [2], 3.28 ± 0.2.

For the sequence KNSTMVNSEDIFLLLCLKVDNHFN [TRIM43], the protein stability index is, setting by setting: under setting [1], 2.98 ± 0.57; under setting [2], 2.84 ± 0.51.

In the case of KPPKPPDKPLMPYMRYSRKVWDQV [SMARCE1], the protein stability index is, setting by setting: under setting [1], 2.08 ± 0.33; under setting [2], 2.53 ± 0.36.

Regarding KPPPRKHTRSWAVLKLLLLLLLFG [LRRC59], the protein stability index by setting is: under setting [1], 2.09 ± 0.3; under setting [2], 2.02 ± 0.26.

Regarding KPPQNPVDTYDVQVTAPGAPPLQA [TNXB], the protein stability index turned out to be 4.84 ± 0.35 under setting [1] and 4.46 ± 0.3 under setting [2].

With KQRLMENTEDWRPRPGTGQSRSFR [PDLIM7], the protein stability index runs as follows: under setting [1], 4.18 ± 0.2; under setting [2], 4.418 ± 0.008.

In the case of KQTREQLHSISDSVLFLQEFGALM [TRIM29], the protein stability index came out at 2.44 ± 0.52 under setting [1] and 2.36 ± 0.34 under setting [2].

In turn, KREREVDEDSEPEREVRAKNGRVD [USP39] registered a protein stability index under setting [1] of 5.46 ± 0.081 and a protein stability index under setting [2] of 5.69 ± 0.12.

Take KRITAHEALKHPWVCQRSTVASMM [CAMK2B]: the protein stability index by setting is: under setting [1], 2.5 ± 0.39; under setting [2], 2.51 ± 0.26.

Consider KRSWEEHVTHWMGQPFNSDDRNTA [DLC1], for which the protein stability index came to 3.12 ± 0.47 under setting [1] and 3.52 ± 0.52 under setting [2].

For the sequence KRYDGLKYDVKKVEEVVYDLSIRG [TSN], the protein stability index was found to be 3.33 ± 0.27 under setting [1] and 3.29 ± 0.094 under setting [2].

In the case of KRYGLGAHRGRLNIQAGINENDFY [CPXM2], the protein stability index is, setting by setting: under setting [1], 2.45 ± 0.44; under setting [2], 2.61 ± 0.28.

Sequence KSHVYMAWNIPMSNPGVDFGDVSE [GALNT9] displayed a protein stability index under setting [1] of 2.65 ± 0.26 and a protein stability index under setting [2] of 2.79 ± 0.15.

Regarding KSKAYTVVGTPCYISPELCEGKPY [NEK8], the protein stability index amounted to 2.83 ± 0.084 under setting [1] and 3.03 ± 0.27 under setting [2].

For the sequence KSKGYGFVSFFNKWDAENAIQQMG [TIA1], the protein stability index under setting [1] is 2.11 ± 0.76 and the protein stability index under setting [2] came out at 1.59 ± 0.3.

For KSVQCGTWTKHAEGGIFTSPNYPS [NETO1], the protein stability index is 2.88 ± 0.19 under setting [1] and 2.89 ± 0.24 under setting [2].
